Assay results from the supplement of paper PMC10724198.

tested on: Saccharomyces cerevisiae; test: protein stability index of tFT-peptide fusion in deletion strain of DAS1 (PSI (0-1 scale)); higher = more stable (slower turnover)
Description: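 MPS profiling in S. cerevisiae of two library types built from selected 12-aa C-degron peptides (IN1, IN2, LN1, LN3, VN2, R1-R5, W1-W3, Atg1 and Rpa12 C-termini): saturation mutagenesis libraries and C-terminal +1 capping libraries (13 aa). Each peptide is fused to the C-terminus of a sfGFP-mCherry timer, after a GGGS linker. Cells are FACS-sorted into 8 mCherry/sfGFP bins and sequenced. PSI runs from 0 (unstable) to 1 (stable), measured once in wild type and in the das1Δ or doa10Δ background.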
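Note: PSI is a weighted mean of each variant's read distribution over the sorted stability bins, computed only for variants having over 10 reads in total.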

Row | Sequence | protein stability index
1 | CTSCGYKFRTTN | 0.699
2 | CTSCGYKFRTYN | 0.696
3 | CTSCGYKLRTNN | 0.678
4 | CTSCGYKQRTNN | 0.688
5 | CTSCGYKRRTNN | 0.683
6 | CTSDGYKFRTNN | 0.669
7 | CTSLGYKFRTNN | 0.689
8 | CTSRGYKFRTNN | 0.685
9 | CYSCGYKFRTNN | 0.708
10 | DKHKKGQKQKIN | 0.602
11 | FMMRWTFRYWVN | 0.359
12 | FQMRWTFRYWVN | 0.46
13 | FRMRWTFRYWVN | 0.584
14 | FSKRWTFRYWVN | 0.596
15 | FSMEWTFRYWVN | 0.425
16 | FSMRNTFRYWVN | 0.578
17 | FSMRSTFRYWVN | 0.608
18 | FSMRWCFRYWVN | 0.554
19 | FSMRWEFRYWVN | 0.471
20 | FSMRWNFRYWVN | 0.536
21 | FSMRWTFDYWVN | 0.577
22 | FSMRWTFHYWVN | 0.456
23 | FSMRWTFREWVN | 0.57
24 | FSMRWTFRRWVN | 0.623

Row | Sequence | protein stability index
25 | FSMRWTFRWWVN | 0.462
26 | FSMRWTFRYLVN | 0.479
27 | FSMRWTFRYWNN | 0.549
28 | FSMRWTFRYWVM | 0.482
29 | FSMRWTFRYWVNP | 0.544
30 | FSMRWTFRYWVR | 0.446
31 | FSMRWTFWYWVN | 0.416
32 | FSMRWTNRYWVN | 0.592
33 | FSMRWTRRYWVN | 0.585
34 | FSMSWTFRYWVN | 0.493
35 | GTSCGYKFRTNN | 0.659
36 | HSLAASFWRVVG | 0.691
37 | KKHKAGQKQKIN | 0.579
38 | KKHKKGCKQKIN | 0.598
39 | KKHKKGDKQKIN | 0.599
40 | KKHKKGLKQKIN | 0.596
41 | KKHKKGQKPKIN | 0.626
42 | KKHKKGQKQKDN | 0.638
43 | KKHKKGQKQKINL | 0.663
44 | KKHKKGQKQKKN | 0.843
45 | KKHKKGQKQKMN | 0.533
46 | KKHKKGQKQKNN | 0.643
47 | KKHKKGQKQSIN | 0.577
48 | KKHKKTQKQKIN | 0.677

Row | Sequence | protein stability index
49 | KKHKVGQKQKIN | 0.567
50 | KKHPKGQKQKIN | 0.684
51 | KKHSKGQKQKIN | 0.576
52 | KKILRQKMNHQN | 0.688
53 | KKPKKGQKQKIN | 0.591
54 | KKSKKGQKQKIN | 0.576
55 | KKTKKGQKQKIN | 0.583
56 | KKVKKGQKQKIN | 0.631
57 | KPHKKGQKQKIN | 0.625
58 | KQHKKGQKQKIN | 0.621
59 | KTHKKGQKQKIN | 0.684
60 | LCILRQKMNHQN | 0.655
61 | LDILRQKMNHQN | 0.707
62 | LEILRQKMNHQN | 0.672
63 | LFVYLSCVACIN | 0.0251
64 | LKCLRQKMNHQN | 0.682
65 | LKELRQKMNHQN | 0.673
66 | LKIGRQKMNHQN | 0.674
67 | LKILGQKMNHQN | 0.678
68 | LKILRHKMNHQN | 0.693
69 | LKILRMKMNHQN | 0.71
70 | LKILRQKFNHQN | 0.668
71 | LKILRQKMDHQN | 0.673
72 | LKILRQKMFHQN | 0.654

Row | Sequence | protein stability index
73 | LKILRQKMNHKN | 0.678
74 | LKILRQKMNHLN | 0.674
75 | LKILRQKMNHMN | 0.605
76 | LKILRQKMNHQD | 0.667
77 | LKILRQKMNHQG | 0.656
78 | LKILRQKMNHTN | 0.672
79 | LKILRQKMQHQN | 0.716
80 | LKILRQKVNHQN | 0.661
81 | LKILVQKMNHQN | 0.662
82 | LKIQRQKMNHQN | 0.676
83 | LKPLRQKMNHQN | 0.682
84 | LKVYLSCVACIN | 0.14
85 | LKYLRQKMNHQN | 0.629
86 | LRILRQKMNHQN | 0.666
87 | LVAYLSCVACIN | 0.156
88 | LVGYLSCVACIN | 0.342
89 | LVVKLSCVACIN | 0.0586
90 | LVVPLSCVACIN | 0.359
91 | LVVYLSCTACIN | 0.0401
92 | LVVYLSCVACCN | 0.0342
93 | LVVYLSCVACHN | 0.0392
94 | LVVYLSCVACIG | 0.0316
95 | LVVYLSCVACINH | 0.0365
96 | LVVYLSCVACINM | 0.206

Row | Sequence | protein stability index
97 | LVVYLSCVACINV | 0.0328
98 | LVVYLSCVACMN | 0.0497
99 | LVVYLSCVACNN | 0.16
100 | LVVYLSCVACSN | 0.0313
101 | LVVYLSCVAYIN | 0.0273
102 | LVVYLSCVDCIN | 0.417
103 | LVVYLSCVECIN | 0.262
104 | LVVYLSCVFCIN | 0.167
105 | LVVYLSCVICIN | 0.112
106 | LVVYLSHVACIN | 0.411
107 | LVVYLSNVACIN | 0.5
108 | LVVYLSRVACIN | 0.356
109 | LVVYRSCVACIN | 0.333
110 | LWVYLSCVACIN | 0.0209
111 | LYILRQKMNHQN | 0.666
112 | PDKKNHLIKLLN | 0.768
113 | PDKRAHLIKLLN | 0.617
114 | PDKRNHKIKLLN | 0.599
115 | PDKRNHLIALLN | 0.634
116 | PDKRNHLIKELN | 0.597
117 | PDKRNHLIKLIN | 0.612
